Experimental data published in US20090325262A1, “Immobilization of biological molecules onto surfaces coated with monolayers” (SURFACE LOGIX, INC., priority 2001, published 2009).
Blank lines part the entries; values can stand above or below the substance they belong to.

How the values were obtained:
[1] = tested on: CCCC(=O)Oc1ccc([N+](=O)[O-])cc1; test: purified protein, by the assay type; conditions: other: substrate of recombinant cutinase; release of PNP followed by absorbance
Procedure: The cutinase concentration was 1 M. The release of PNP was followed using absorbance spectroscopy.
Spectrophotometric measurement was performed at room temperature using BECKMAN DU-640 spectrophotometer (BECKMAN COULTER, INC., Fullerton, Calif.). Esterase activity of purified recombinant cutinase was measured by monitoring p-nitrophenol butyrate (PNB) hydrolysis rates at 410 nm (=8,800 M-1 cm-1) in buffer A.

[2] = biological target: biotin-NH-Arg-Asp-Cys-CONH2; test: SPR, fibrinogen (0.5 mg/mL) flowed over 2% maleimide SAM treated with the peptide; FIG. 4
[3] = biological target: biotin-NH-Arg-Asp-Cys-CONH2; test: SPR (Biacore 3000), streptavidin flowed over 2% maleimide SAM treated with the peptide (1.2 mM, 12 min); FIG. 3 sensorgram A

Substance: cutinase (Fusarium vanettenii)
Km [1]: 1000 µM

SPR response (RU) [2]: 60 RU
Substance: fibrinogen

SPR response (RU) [3]: 2280 RU
Substance: streptavidin (from UniProt P22629 37-163)
